Measured values from the supplement of paper PMC7125110.
± gives the standard error. For some assays here: Variants at the floor of the assay were thinned out.

B1: glmS ribozyme (parent)
chain: AUAAAAGCGCCAGAACUACAGAAAUGUAGUUGACGAGGAGGAGGUUUAUCGAAUUUUCGGCGGAUGCCUCCAAA

Legend:
Conditions in all cases: with glucosamine-6-phosphate
glucosamine-6-phosphate [1] = variants of: B1; assay: kcat; higher = faster cleavage; RNA array
Outline: (§1)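 On sequenced MiSeq chips, barcoded ribozyme variants were made in situ by E. coli RNA polymerase and followed at 37 °C through a hybridised Cy3 probe. Glucosamine-6-phosphate was flowed in at 40 μM to 10 mM in HEPES/KCl/Mg(OAc)2 buffer. Exponential fits to normalised per-tile medians gave kobs, and weighted Michaelis–Menten fits gave kcat and KM.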

glucosamine-6-phosphate [2] = variants of: B1; assay: self-cleavage kobs at 160 uM GlcN6P; higher = faster cleavage; RNA array
Outline: as §1

glucosamine-6-phosphate [3] = variants of: B1; assay: self-cleavage kobs at 640 uM GlcN6P; higher = faster cleavage; RNA array
Outline: as §1

glucosamine-6-phosphate [4] = variants of: B1; assay: self-cleavage kobs at 2500 uM GlcN6P; higher = faster cleavage; RNA array
Outline: as §1

glucosamine-6-phosphate [5] = variants of: B1; assay: self-cleavage kobs at 10000 uM GlcN6P; higher = faster cleavage; RNA array
Outline: as §1

glucosamine-6-phosphate [6] = variants of: B1; assay: KM; higher = weaker cofactor use; RNA array
Outline: as §1

glucosamine-6-phosphate [7] = variants of: B1; assay: self-cleavage kobs at 40 uM GlcN6P; higher = faster cleavage; RNA array
Outline: as §1

Row | Variant | kcat (glucosamine-6-phosphate [1]) [s⁻¹] | self-cleavage kobs at 160 uM GlcN6P (glucosamine-6-phosphate [2]) [s⁻¹] | self-cleavage kobs at 640 uM GlcN6P (glucosamine-6-phosphate [3]) [s⁻¹] | self-cleavage kobs at 2500 uM GlcN6P (glucosamine-6-phosphate [4]) [s⁻¹] | self-cleavage kobs at 10000 uM GlcN6P (glucosamine-6-phosphate [5]) [s⁻¹] | KM (glucosamine-6-phosphate [6]) [µM] | self-cleavage kobs at 40 uM GlcN6P (glucosamine-6-phosphate [7]) [s⁻¹]
1 | C67A C71G | 7.2e-05 ± 7e-06 | 5.48e-05 ± 8.6e-06 | 6.96e-05 ± 6.6e-06 | 8.16e-05 ± 8.2e-06 | 6e-05 ± 6.9e-06 | – | –
2 | C11U U56C | 0.000248 ± 5e-05 | – | 4.51e-05 ± 9.7e-06 | 0.000176 ± 2.3e-05 | 0.000188 ± 2.3e-05 | 2260 ± 1000 | –
3 | A12C C67A | 0.00471 ± 0.0013 | 0.000456 ± 7.2e-05 | 0.00125 ± 0.0002 | 0.0034 ± 0.00084 | 0.00467 ± 0.00054 | 1180 ± 470 | 0.000204 ± 1.9e-05
4 | G40C C70G | 0.000147 ± 2.2e-05 | – | 5.48e-05 ± 8.7e-06 | 0.000163 ± 2.9e-05 | 0.000128 ± 1.3e-05 | 973 ± 420 | –
5 | A53C G66C | 0.000476 ± 8.1e-05 | – | 9.27e-05 ± 1.9e-05 | 0.00034 ± 0.00011 | 0.000368 ± 6.5e-05 | 2510 ± 780 | –
6 | C61A C70A | < 1e-05 | < 1e-05 | – | – | – | – | < 1e-05
7 | A14U G29U | 0.000435 ± 4.6e-05 | 3.57e-05 ± 7.2e-06 | 0.000104 ± 9.7e-06 | 0.000222 ± 2e-05 | 0.000381 ± 3.2e-05 | 2040 ± 400 | 2.02e-05 ± 9.5e-06
8 | G32U C67G | 0.000119 ± 1.3e-05 | – | 4.87e-05 ± 1.6e-05 | 6.69e-05 ± 1.2e-05 | 0.000107 ± 1.2e-05 | 1520 ± 570 | –
9 | A39U A53G | 0.0183 ± 0.0065 | 0.00141 ± 0.00023 | 0.0052 ± 0.00085 | 0.0187 ± 0.0064 | 0.0166 ± 0.0029 | 1410 ± 620 | 0.000648 ± 6.7e-05
10 | G29C U69C | 0.000103 ± 2.8e-05 | 8.98e-05 ± 2.2e-05 | 0.000129 ± 2.2e-05 | 0.000164 ± 3e-05 | 6.68e-05 ± 1.6e-05 | – | –
11 | G38A U65A | < 1e-05 | – | – | – | – | – | –
12 | G32U C58U | 0.000916 ± 0.0003 | 6.06e-05 ± 1.7e-05 | 0.000118 ± 1.5e-05 | 0.000245 ± 3e-05 | 0.000655 ± 6.4e-05 | – | –
13 | A53U U69G | 6.8e-05 ± 1.2e-05 | 6.15e-05 ± 1.2e-05 | 4.69e-05 ± 1.2e-05 | 8.29e-05 ± 9.4e-06 | 4.84e-05 ± 1.2e-05 | – | –
14 | U31C C58G | 7.48e-05 ± 2.5e-05 | – | 2.98e-05 ± 1.3e-05 | 2.91e-05 ± 1.1e-05 | 6.27e-05 ± 1.2e-05 | – | < 1e-05
15 | A14U C50U | 4.31e-05 ± 1.5e-06 | – | – | 3.01e-05 ± 1.1e-05 | 3.81e-05 ± 1.1e-05 | 1180 ± 170 | –
16 | G40U U45A | 0.0022 ± 0.00057 | 0.000265 ± 4.2e-05 | 0.00081 ± 0.0001 | 0.00235 ± 0.00023 | 0.00154 ± 0.00024 | 1030 ± 420 | 8.3e-05 ± 1.1e-05

Row | Variant | kcat (glucosamine-6-phosphate [1]) [s⁻¹] | self-cleavage kobs at 160 uM GlcN6P (glucosamine-6-phosphate [2]) [s⁻¹] | self-cleavage kobs at 640 uM GlcN6P (glucosamine-6-phosphate [3]) [s⁻¹] | self-cleavage kobs at 2500 uM GlcN6P (glucosamine-6-phosphate [4]) [s⁻¹] | self-cleavage kobs at 10000 uM GlcN6P (glucosamine-6-phosphate [5]) [s⁻¹] | KM (glucosamine-6-phosphate [6]) [µM] | self-cleavage kobs at 40 uM GlcN6P (glucosamine-6-phosphate [7]) [s⁻¹]
17 | C11U G40U C70U | 0.000108 ± 1.1e-06 | – | – | 7.62e-05 ± 2.5e-05 | 9.73e-05 ± 2e-05 | 1100 ± 48 | –
18 | U45G A53U | 0.00477 ± 0.00059 | 0.000306 ± 5.6e-05 | 0.000953 ± 0.00022 | 0.00274 ± 0.001 | 0.004 ± 0.0007 | 2170 ± 340 | 9.6e-05 ± 1.4e-05
19 | A12G C58G C67A | 0.000115 ± 2.4e-05 | – | 0.000136 ± 3.6e-05 | 9.94e-05 ± 2.1e-05 | – | – | –
20 | U31G A52U G62U C67G | < 1e-05 | – | – | < 1e-05 | < 1e-05 | – | < 1e-05
21 | A42U C68G | 1.72e-05 ± 6.1e-06 | – | – | – | – | – | –
22 | G32A | 0.00528 ± 0.00074 | 0.000185 ± 5.1e-06 | 0.00064 ± 1.1e-05 | 0.00219 ± 7.7e-05 | 0.00372 ± 7.6e-05 | 4250 ± 750 | 5.63e-05 ± 1.2e-06
23 | G32U | 0.00158 ± 5.1e-05 | 4.88e-05 ± 1.7e-06 | 0.000173 ± 2.7e-06 | 0.000508 ± 1e-05 | 0.00104 ± 1.4e-05 | 5150 ± 240 | 1.52e-05 ± 1.4e-06
24 | A14G U45G | 0.0225 ± 0.0076 | 0.000908 ± 0.00024 | 0.00617 ± 0.0025 | 0.00864 ± 0.003 | 0.0175 ± 0.0071 | 3450 ± 1400 | 0.000286 ± 0.0001
25 | G40U U47A | 0.00153 ± 0.00048 | 0.000114 ± 2.9e-05 | 0.000565 ± 0.0002 | 0.00134 ± 0.00045 | 0.00115 ± 0.00037 | 1680 ± 730 | 6.16e-05 ± 2.8e-05
26 | G40C A42U | 3.99e-05 ± 4.6e-06 | – | – | 4.68e-05 ± 2.2e-05 | 3.64e-05 ± 1.1e-05 | – | –
27 | A53U C68A | 5.43e-05 ± 1.6e-05 | 3.62e-05 ± 1e-05 | 6.67e-05 ± 8.3e-06 | 6.54e-05 ± 9.8e-06 | – | – | –
28 | G29U A39C | 0.00147 ± 0.00028 | 8.26e-05 ± 1.4e-05 | 0.000457 ± 5.8e-05 | 0.000781 ± 0.0001 | 0.00118 ± 0.00014 | 2170 ± 670 | 2.91e-05 ± 9.8e-06
29 | A42C C67G | 8.04e-05 ± 1.5e-05 | – | – | 6.32e-05 ± 1.4e-05 | 6.4e-05 ± 4.6e-06 | – | –
30 | C16U G63U | 1.26e-05 ± 2.3e-06 | – | – | – | – | – | –
31 | A53U A64C | 8.67e-05 ± 2.2e-05 | – | – | 9.3e-05 ± 1.6e-05 | 7.17e-05 ± 1.1e-05 | – | –
